# PMC10666288, “Unveiling the Catalytic Mechanism of a Processive Metalloaminopeptidase” (Biochemistry, 2023)
# Legend:
# [1] = tested on: N=C(N)NCCC[C@H](N)C(=O)Nc1ccc([N+](=O)[O-])cc1; test: purified protein, by the assay type; conditions: other: aa-pNA varied, 3 mM MnCl2, 100 nM PaPepA, pH 8.0, 25 °C, pH 8.0
# [2] = tested on: CC(C)C[C@H](N)C(=O)Nc1ccc([N+](=O)[O-])cc1; test: purified protein, by the assay type; conditions: 25.0 °C
substance,measurement,setting,value
PaPepA (Pseudomonas aeruginosa UCBPP-PA14),Km,[1],0.12 ± 0.02 mM
same,kcat,[1],0.052 s⁻¹
same,kcat/Km,[1],440 M⁻¹ s⁻¹
same,Km,"[2]; other: 5 % PEG 8000, Leu-pNA varied",110 µM
same,Km,"[2]; other: H2O (0% PEG-8000), Leu-pNA varied",86.9 µM
